The record followed here is PMC2174254.

Assay in all cases: cross-linking
For assay [1], the target named is PDI deletion mutant Δ222–302 (S. cerevisiae) (UniProt P17967).
Assay [2] has as its target PDI deletion mutant Δ252–277 (S. cerevisiae) (UniProt P17967).
In assay [3] the target is PDI deletion mutant Δ222–302 (S. cerevisiae) (UniProt P17967). The source holds these as a separate data set.
Assay [4] deals with Protein disulfide isomerase (PDI), wild type, S. cerevisiae (S. cerevisiae) (UniProt P17967).
For assay [5], the target named is BiP, heavy chain binding protein (S. cerevisiae (endogenous in yeast microsomes)) (UniProt P16474).

Read-outs that look alike come from different tables or passages of the source.

BiP, heavy chain binding protein (S. cerevisiae (endogenous in yeast microsomes)), sequence (P16474 43-682): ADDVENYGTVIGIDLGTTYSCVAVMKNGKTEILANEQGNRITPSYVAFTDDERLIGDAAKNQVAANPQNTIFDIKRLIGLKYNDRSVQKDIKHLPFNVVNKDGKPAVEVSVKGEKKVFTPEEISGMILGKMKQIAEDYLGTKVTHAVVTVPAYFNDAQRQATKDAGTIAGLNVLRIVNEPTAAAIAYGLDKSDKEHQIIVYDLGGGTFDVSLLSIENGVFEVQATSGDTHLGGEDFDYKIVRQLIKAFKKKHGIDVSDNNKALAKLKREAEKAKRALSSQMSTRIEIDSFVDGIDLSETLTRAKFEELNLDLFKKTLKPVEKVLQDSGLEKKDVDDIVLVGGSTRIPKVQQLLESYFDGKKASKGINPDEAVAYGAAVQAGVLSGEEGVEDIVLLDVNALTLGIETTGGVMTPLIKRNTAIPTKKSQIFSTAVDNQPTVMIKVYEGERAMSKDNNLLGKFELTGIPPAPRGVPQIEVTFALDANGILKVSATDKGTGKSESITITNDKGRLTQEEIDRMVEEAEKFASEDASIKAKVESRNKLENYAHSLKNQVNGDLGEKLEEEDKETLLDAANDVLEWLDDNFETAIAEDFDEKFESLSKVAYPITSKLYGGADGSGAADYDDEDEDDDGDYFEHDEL

Regarding “N-benzoyl-NYT-amide, synthetic glycosylation acceptor peptide”, the peptide binding, percent of wild-type (% of wild-type) in assay [1] stood at 14; in assay [2], 38; in assay [3], 13.

In the case of “gpαf, glycopro-α factor (wild type) (natural protein)”, the fold lower intensity of the cross-linking product than that with Δgpαf in assay [4] was found to be 8 fold.

The term stoichiometry N denotes a count of units in the complex or per binding partner. Take “Δgpαf, mutant glycosylation site-free pro-α factor (natural protein)”: in assay [5], the percent of the Δgpαf in the sample cross-linked to BiP is 10%, the Δgpαf bound to BiP in sec61-32 microsomes relative to wild-type microsomes came to 2.1 fold and the Δgpαf bound to BiP in sec61-41 microsomes relative to wild-type microsomes came to 1.3 fold. In assay [1], the fold lower affinity than wild-type PDI worked out at 5 fold and the intensity of the cross-linking product, percent of wild-type (% of wild-type) was 43. In assay [2], this substance had a fold lower affinity than wild-type PDI of 9 fold and an intensity of the cross-linking product, percent of wild-type (% of wild-type) of 24. In assay [4], the percent of the Δgpαf in the sample cross-linked to PDI was 7% and the stoichiometry N was 1.
